Source: patent US20150183835A1

Assays:
[1] = target: disulfide-stabilized SF162 L1-SS-L2 gp120 (V59C & S109C) (HIV-1 strain SF162) (UniProt P19550); assay: SPR BIAcore 3000, b12 immobilized; Kd compared with wild-type gp120
[2] = target: disulfide-stabilized SF162 L1-SS-L2 gp120 (V59C & S109C) (HIV-1 strain SF162) (UniProt P19550); assay: SPR BIAcore 3000, b12 amine-coupled on CM5, gp120 L1-SS-L2 as analyte, 25 C, 1:1 Langmuir fit
[3] = target: HIV-1 SF162 gp120 (wild type, unmodified) (HIV-1 strain SF162) (UniProt P19550); assay: SPR BIAcore 3000, b12 amine-coupled on CM5, gp120 as analyte, 25 C, 1:1 Langmuir fit

In the case of mAb b12 (antibody), the fold difference in Kd against wild-type gp120 [1] is reported as < 7 fold, the Kd [2] is reported as 304 nM and the koff [2] is reported as 0.00885 s⁻¹. The kon [2] was 29100 M⁻¹ s⁻¹, the Kd [3] was 44.8 nM and the koff [3] was 0.00712 s⁻¹. It also gave a kon [3] of 165000 M⁻¹ s⁻¹.
